The target in one test is T1, CD19 (human, UniProt P15391 20-556).
T1 sequence (looked up): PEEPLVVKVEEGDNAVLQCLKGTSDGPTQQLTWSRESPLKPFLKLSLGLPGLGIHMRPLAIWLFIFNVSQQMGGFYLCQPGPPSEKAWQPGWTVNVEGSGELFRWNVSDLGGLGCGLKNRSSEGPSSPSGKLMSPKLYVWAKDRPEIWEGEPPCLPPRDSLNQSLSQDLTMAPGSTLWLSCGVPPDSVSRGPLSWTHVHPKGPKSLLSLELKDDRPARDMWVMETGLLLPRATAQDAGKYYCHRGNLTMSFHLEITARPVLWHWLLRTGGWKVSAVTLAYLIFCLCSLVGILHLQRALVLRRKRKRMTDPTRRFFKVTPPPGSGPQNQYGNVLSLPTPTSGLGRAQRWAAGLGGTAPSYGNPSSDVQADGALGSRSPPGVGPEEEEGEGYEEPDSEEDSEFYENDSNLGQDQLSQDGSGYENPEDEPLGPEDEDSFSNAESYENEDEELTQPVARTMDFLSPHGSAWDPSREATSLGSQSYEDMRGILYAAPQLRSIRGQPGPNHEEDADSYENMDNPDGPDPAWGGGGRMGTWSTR
In words: cell-based or functional assay.

A further test has as its target T2, CD137 (human, UniProt Q07011 24-186).
T2 construct: Reporter assays used GS-H2-huCD137 cells expressing human CD137; also called 4-1BB/CD137; huCD137
Put plainly: CD137 binding by FCM or ELISA. (ELISA stands for enzyme-linked immunosorbent assay.)

A further test deals with CD40 (UniProt P25942 21-193, limits assumed). In words: FCM or ELISA, graded.
Chain of CD40 (P25942 21-193 limits assumed): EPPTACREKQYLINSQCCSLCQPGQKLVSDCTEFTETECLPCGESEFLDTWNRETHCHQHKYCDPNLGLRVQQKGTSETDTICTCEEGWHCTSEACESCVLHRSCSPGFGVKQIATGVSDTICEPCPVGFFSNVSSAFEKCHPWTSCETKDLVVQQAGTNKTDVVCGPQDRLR
The next test deals with PD-1 (binding assay) (UniProt Q15116 25-167, limits assumed). Put plainly: FCM or ELISA, graded.
Chain of PD-1 (binding assay) (Q15116 25-167 limits assumed): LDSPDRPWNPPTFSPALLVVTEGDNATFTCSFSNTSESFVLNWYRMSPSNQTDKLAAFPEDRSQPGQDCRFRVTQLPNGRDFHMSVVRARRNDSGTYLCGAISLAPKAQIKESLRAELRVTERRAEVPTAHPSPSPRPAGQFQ

B1: Ly1966 (other)
chain 1: QVQLQQSGAELVRPGSSVKISCKASGYAFSSYWMNWVKQRPGQGLEWIGQIWPGDGDTNYNGKFKGKATLTADESSSTAYMQLSSLASEDSAVYFCARRETTTVGRYYYAMDYWGQGTTVTVSSASTKGPSVFPLAPSSKSTSGGTAALGCLVKDYFPEPVTVSWNSGALTSGVHTFPAVLQSSGLYSLSSVVTVPSSSLGTQTYICNVNHKPSNTKVDKKVEPKSCGGGGSGGGGSGGGGSGGGGSEVQLVESGGGLVQPGGSLRLSCAASGFTFSTYAMNWVRQAPGKGLEWVGRIRSKYNNYATYYADSVKGRFTISRDDSKNSLYLQMNSLKTEDTAVYYCVRHGNFGNSYVSWFAYWGQGTLVTVSSGGGGSDKTHTCPPCPAPEAAGPSVFLFPPKPKDTLMISRTPEVTCVVVDVSHEDPEVKFNWYVDGVEVHNAKTKPREEQYNSTYRVVSVLTVLHQDWLNGKEYKCKVSNKALPAPIEKTISKAKGQPREPQVYTLPPSREEMTKNQVSLWCLVKGFYPSDIAVEWESNGQPENNYKTTPPVLDSDGSFFLYSKLTVDKSRWQQGNVFSCSVMHEALHNHYTQKSLSLSPGGGGGSGGGGSGGGGSGGGGSQVQLVQSGAEVKKPGASVKVSCKASGYTFAGFEMHWVRQAPGQGLEWMGAIDPKTGGTDYNQKFKDRVTMTRDTSISTAYMELSRLRSDDTAVYYCARDLGYFDVWGQGTLVTVSS
chain 2: QVQLQQSGAELVRPGSSVKISCKASGYAFSSYWMNWVKQRPGQGLEWIGQIWPGDGDTNYNGKFKGKATLTADESSSTAYMQLSSLASEDSAVYFCARRETTTVGRYYYAMDYWGQGTTVTVSSASTKGPSVFPLAPSSKSTSGGTAALGCLVKDYFPEPVTVSWNSGALTSGVHTFPAVLQSSGLYSLSSVVTVPSSSLGTQTYICNVNHKPSNTKVDKKVEPKSCGGGGSGGGGSGGGGSGGGGSQAVVTQEPSLTVSPGGTVTLTCRSSTGAVTTSNYANWVQQKPGQAPRGLIGGTNKRAPWTPARFSGSLLGGKAALTITGAQAEDEADYYCALWYSNLWVFGGGTKLTVLGGGGSDKTHTCPPCPAPEAAGPSVFLFPPKPKDTLMISRTPEVTCVVVDVSHEDPEVKFNWYVDGVEVHNAKTKPREEQYNSTYRVVSVLTVLHQDWLNGKEYKCKVSNKALPAPIEKTISKAKGQPREPQVYTLPPSREEMTKNQVSLSCAVKGFYPSDIAVEWESNGQPENNYKTTPPVLDSDGSFFLVSKLTVDKSRWQQGNVFSCSVMHEALHNRFTQKSLSLSPGGGGGSGGGGSGGGGSGGGGSDIQMTQSPSSLSASVGDRVTITCRASQDIRSNLNWYQQKPGGAVKLLIYYTSRLHSGVPSRFSGSGSGTDYTLTISSLQPEDFATYFCQQSEKLPRTFGGGTKVEIR
light: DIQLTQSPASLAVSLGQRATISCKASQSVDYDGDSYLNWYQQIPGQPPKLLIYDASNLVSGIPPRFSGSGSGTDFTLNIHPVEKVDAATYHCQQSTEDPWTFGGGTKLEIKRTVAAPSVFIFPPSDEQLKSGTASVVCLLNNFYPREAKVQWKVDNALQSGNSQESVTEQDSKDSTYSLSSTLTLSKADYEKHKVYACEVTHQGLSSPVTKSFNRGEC
notes: Tri-specific CD19/CD3/CD137: two CD19 Fabs, central CD3 Fv, terminal CD137 Fv
As for B1, in the test with CD19, the “EC50 of cytotoxicity (LDH release), Raji cells with human PBMCs, 48 hours” value worked out at 10.8 pM. Besides, the binding result with CD137 is on record as “binds”.

B2: Ly1967 (other)
chain 1: QVQLQQSGAELVRPGSSVKISCKASGYAFSSYWMNWVKQRPGQGLEWIGQIWPGDGDTNYNGKFKGKATLTADESSSTAYMQLSSLASEDSAVYFCARRETTTVGRYYYAMDYWGQGTTVTVSSASTKGPSVFPLAPSSKSTSGGTAALGCLVKDYFPEPVTVSWNSGALTSGVHTFPAVLQSSGLYSLSSVVTVPSSSLGTQTYICNVNHKPSNTKVDKKVEPKSCGGGGSGGGGSGGGGSGGGGSEVQLVESGGGLVQPGGSLRLSCAASGFTFSTYAMNWVRQAPGKGLEWVGRIRSKYNNYATYYADSVKGRFTISRDDSKNSLYLQMNSLKTEDTAVYYCVRHGNFGNSYVSWFAYWGQGTLVTVSSGGGGSDKTHTCPPCPAPEAAGPSVFLFPPKPKDTLMISRTPEVTCVVVDVSHEDPEVKFNWYVDGVEVHNAKTKPREEQYNSTYRVVSVLTVLHQDWLNGKEYKCKVSNKALPAPIEKTISKAKGQPREPQVYTLPPSREEMTKNQVSLWCLVKGFYPSDIAVEWESNGQPENNYKTTPPVLDSDGSFFLYSKLTVDKSRWQQGNVFSCSVMHEALHNHYTQKSLSLSPGGGGGSGGGGSGGGGSGGGGSQVQLVQSGAEVKKPGASVKVSCKASGYTFAGFEMHWVRQAPGQGLEWMGAIDPKTGGTDYNQKFKDRVTMTRDTSISTAYMELSRLRSDDTAVYYCARDLGYFDVWGQGTLVTVSS
chain 2: QVQLQQSGAELVRPGSSVKISCKASGYAFSSYWMNWVKQRPGQGLEWIGQIWPGDGDTNYNGKFKGKATLTADESSSTAYMQLSSLASEDSAVYFCARRETTTVGRYYYAMDYWGQGTTVTVSSASTKGPSVFPLAPSSKSTSGGTAALGCLVKDYFPEPVTVSWNSGALTSGVHTFPAVLQSSGLYSLSSVVTVPSSSLGTQTYICNVNHKPSNTKVDKKVEPKSCGGGGSGGGGSGGGGSGGGGSQAVVTQEPSLTVSPGGTVTLTCRSSTGAVTTSNYANWVQQKPGQAPRGLIGGTNKRAPWTPARFSGSLLGGKAALTITGAQAEDEADYYCALWYSNLWVFGGGTKLTVLGGGGSDKTHTCPPCPAPEAAGPSVFLFPPKPKDTLMISRTPEVTCVVVDVSHEDPEVKFNWYVDGVEVHNAKTKPREEQYNSTYRVVSVLTVLHQDWLNGKEYKCKVSNKALPAPIEKTISKAKGQPREPQVYTLPPSREEMTKNQVSLSCAVKGFYPSDIAVEWESNGQPENNYKTTPPVLDSDGSFFLVSKLTVDKSRWQQGNVFSCSVMHEALHNHYTQKSLSLSPGGGGGSGGGGSGGGGSGGGGSDIQMTQSPSSLSASVGDRVTITCRASQDIRSNLNWYQQKPGGAVKLLIYYTSRLHSGVPSRFSGSGSGTDYTLTISSLQPEDFATYFCQQSEKLPRTFGGGTKVEIR
light: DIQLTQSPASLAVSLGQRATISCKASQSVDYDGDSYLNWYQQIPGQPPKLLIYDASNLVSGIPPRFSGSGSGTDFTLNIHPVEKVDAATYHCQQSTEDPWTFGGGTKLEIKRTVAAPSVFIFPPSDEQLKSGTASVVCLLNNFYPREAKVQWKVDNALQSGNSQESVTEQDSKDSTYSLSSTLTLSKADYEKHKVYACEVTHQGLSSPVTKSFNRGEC
Regarding B2, the “EC50 of cytotoxicity (LDH release), Raji cells with human PBMCs, 48 hours” value with CD19 was determined as 8.9 pM. Also, the binding result with CD137 is on record as “binds”.

B3: Ly2415 (bispecific antibody, human IgG1, kappa)
heavy 1: QVTLKESGPALVKPTQTLTLTCTFSGFSLSTSGTCVSWIRQPPGKALEWLATICWEDSKGYNPSLKSRLTISKDTSKNQAVLTMTNMDPVDTATYYCARREDSGYFWFPYWGQGTLVTVSSASTKGPSVFPLAPSSKSTSGGTAALGCLVKDYFPEPVTVSWNSGALTSGVHTFPAVLQSSGLYSLSSVVTVPSSSLGTQTYICNVNHKPSNTKVDKKVEPKSCDKTHTCPPCPAPEAAGPSVFLFPPKPKDTLMISRTPEVTCVVVDVSHEDPEVKFNWYVDGVEVHNAKTKPREEQYNSTYRVVSVLTVLHQDWLNGKEYKCKVSNKALPAPIEKTISKAKGQPREPQVYTLPPSREEMTKNQVSLWCLVKGFYPSDIAVEWESNGQPENNYKTTPPVLDSDGSFFLYSKLTVDKSRWQQGNVFSCSVMHEALHNHYTQKSLSLSPGGGGGSGGGGSGGGGSGGGGSEVQLVESGGGLVQPGGSLRLSCAASGFTFTNYGLHWVRQAPGKGLEWVSSISPSGGVTYYRDSVKGRFTISRDNSKNTLYLQMNSLRAEDTAVYYCAKPFLGWGGANWIAHWGQGTLVTVSS
heavy 2: QVTLKESGPALVKPTQTLTLTCTFSGFSLSTSGTCVSWIRQPPGKALEWLATICWEDSKGYNPSLKSRLTISKDTSKNQAVLTMTNMDPVDTATYYCARREDSGYFWFPYWGQGTLVTVSSASTKGPSVFPLAPSSKSTSGGTAALGCLVKDYFPEPVTVSWNSGALTSGVHTFPAVLQSSGLYSLSSVVTVPSSSLGTQTYICNVNHKPSNTKVDKKVEPKSCDKTHTCPPCPAPEAAGPSVFLFPPKPKDTLMISRTPEVTCVVVDVSHEDPEVKFNWYVDGVEVHNAKTKPREEQYNSTYRVVSVLTVLHQDWLNGKEYKCKVSNKALPAPIEKTISKAKGQPREPQVYTLPPSREEMTKNQVSLSCAVKGFYPSDIAVEWESNGQPENNYKTTPPVLDSDGSFFLVSKLTVDKSRWQQGNVFSCSVMHEALHNRFTQKSLSLSPGGGGGSGGGGSGGGGSGGGGSDIQMTQSPSSLSASVGDRVTITCLASEDISNDLAWYQQKPGKAPKLLIYFVDRLLDGVPSRFSGSGSGTDFTLTISSLQPEDFATYYCQQSYKYPPTFGQGTKLEIK
light: NIQMTQSPSSLSASVGDRVTITCKAGQNVNNYLAWYQQKPGKAPKVLIFNANSLQTGVPSRFSGSGSGTDFTLTISSLQPEDFATYYCQQYNSWPTFGGGTKVEIKRTVAAPSVFIFPPSDEQLKSGTASVVCLLNNFYPREAKVQWKVDNALQSGNSQESVTEQDSKDSTYSLSSTLTLSKADYEKHKVYACEVTHQGLSSPVTKSFNRGEC
notes: PD-1 Fabs (Ly516) x terminal CD40 Fv (TM559)
On to B3, for which the binding result with CD40 and with PD-1 (binding assay) was “binds” each time.

Values taken from US20250388669A1 (published 2025).
